Test results as given in patent publication US20090324606A1 (published 2009).

Assays:
Experiment in all cases: ELISA, antigen coated at 10 µg/ml
[1] = biological target: BoNT/A HN, recombinant translocation domain of botulinum neurotoxin serotype A (Clostridium botulinum, UniProt P0DPI0 449-870)
[2] = biological target: T1, botulinum neurotoxin serotype B (BoNT/B) (UniProt P10844 2-1291)
T1 sequence: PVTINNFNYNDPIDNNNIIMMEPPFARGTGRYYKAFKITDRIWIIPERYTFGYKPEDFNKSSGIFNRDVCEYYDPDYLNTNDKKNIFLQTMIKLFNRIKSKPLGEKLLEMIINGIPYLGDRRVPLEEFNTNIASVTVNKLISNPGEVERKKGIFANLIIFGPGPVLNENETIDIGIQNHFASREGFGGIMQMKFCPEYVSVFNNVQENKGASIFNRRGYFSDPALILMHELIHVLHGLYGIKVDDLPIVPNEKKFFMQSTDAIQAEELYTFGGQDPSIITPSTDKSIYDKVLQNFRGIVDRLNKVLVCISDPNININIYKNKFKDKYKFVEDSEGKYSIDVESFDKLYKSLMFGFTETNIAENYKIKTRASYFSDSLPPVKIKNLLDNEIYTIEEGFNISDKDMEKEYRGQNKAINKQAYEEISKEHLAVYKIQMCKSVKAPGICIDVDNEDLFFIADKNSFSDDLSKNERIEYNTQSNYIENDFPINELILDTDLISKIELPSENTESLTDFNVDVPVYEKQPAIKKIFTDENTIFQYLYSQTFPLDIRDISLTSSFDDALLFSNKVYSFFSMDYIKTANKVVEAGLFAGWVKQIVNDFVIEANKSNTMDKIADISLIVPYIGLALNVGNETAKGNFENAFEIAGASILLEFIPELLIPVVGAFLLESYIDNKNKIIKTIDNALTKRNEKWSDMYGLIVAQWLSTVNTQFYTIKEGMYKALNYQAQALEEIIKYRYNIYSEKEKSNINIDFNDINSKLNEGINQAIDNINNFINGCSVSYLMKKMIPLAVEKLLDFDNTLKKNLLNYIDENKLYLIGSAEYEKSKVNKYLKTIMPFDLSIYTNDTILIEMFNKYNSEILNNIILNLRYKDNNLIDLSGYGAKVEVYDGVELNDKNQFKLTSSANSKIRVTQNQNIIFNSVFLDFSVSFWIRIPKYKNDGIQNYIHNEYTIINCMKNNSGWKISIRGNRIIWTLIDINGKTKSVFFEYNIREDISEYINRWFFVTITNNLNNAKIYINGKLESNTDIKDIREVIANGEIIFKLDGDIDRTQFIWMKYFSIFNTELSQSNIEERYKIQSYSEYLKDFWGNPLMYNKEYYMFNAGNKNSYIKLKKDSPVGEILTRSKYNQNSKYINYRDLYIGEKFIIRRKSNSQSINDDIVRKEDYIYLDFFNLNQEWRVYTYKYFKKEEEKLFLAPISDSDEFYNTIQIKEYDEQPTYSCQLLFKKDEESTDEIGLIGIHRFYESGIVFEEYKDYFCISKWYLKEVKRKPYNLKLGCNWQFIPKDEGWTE

[3] = biological target: T2, botulinum neurotoxin serotype C (BoNT/C) (UniProt P18640 2-1291)
T2 sequence: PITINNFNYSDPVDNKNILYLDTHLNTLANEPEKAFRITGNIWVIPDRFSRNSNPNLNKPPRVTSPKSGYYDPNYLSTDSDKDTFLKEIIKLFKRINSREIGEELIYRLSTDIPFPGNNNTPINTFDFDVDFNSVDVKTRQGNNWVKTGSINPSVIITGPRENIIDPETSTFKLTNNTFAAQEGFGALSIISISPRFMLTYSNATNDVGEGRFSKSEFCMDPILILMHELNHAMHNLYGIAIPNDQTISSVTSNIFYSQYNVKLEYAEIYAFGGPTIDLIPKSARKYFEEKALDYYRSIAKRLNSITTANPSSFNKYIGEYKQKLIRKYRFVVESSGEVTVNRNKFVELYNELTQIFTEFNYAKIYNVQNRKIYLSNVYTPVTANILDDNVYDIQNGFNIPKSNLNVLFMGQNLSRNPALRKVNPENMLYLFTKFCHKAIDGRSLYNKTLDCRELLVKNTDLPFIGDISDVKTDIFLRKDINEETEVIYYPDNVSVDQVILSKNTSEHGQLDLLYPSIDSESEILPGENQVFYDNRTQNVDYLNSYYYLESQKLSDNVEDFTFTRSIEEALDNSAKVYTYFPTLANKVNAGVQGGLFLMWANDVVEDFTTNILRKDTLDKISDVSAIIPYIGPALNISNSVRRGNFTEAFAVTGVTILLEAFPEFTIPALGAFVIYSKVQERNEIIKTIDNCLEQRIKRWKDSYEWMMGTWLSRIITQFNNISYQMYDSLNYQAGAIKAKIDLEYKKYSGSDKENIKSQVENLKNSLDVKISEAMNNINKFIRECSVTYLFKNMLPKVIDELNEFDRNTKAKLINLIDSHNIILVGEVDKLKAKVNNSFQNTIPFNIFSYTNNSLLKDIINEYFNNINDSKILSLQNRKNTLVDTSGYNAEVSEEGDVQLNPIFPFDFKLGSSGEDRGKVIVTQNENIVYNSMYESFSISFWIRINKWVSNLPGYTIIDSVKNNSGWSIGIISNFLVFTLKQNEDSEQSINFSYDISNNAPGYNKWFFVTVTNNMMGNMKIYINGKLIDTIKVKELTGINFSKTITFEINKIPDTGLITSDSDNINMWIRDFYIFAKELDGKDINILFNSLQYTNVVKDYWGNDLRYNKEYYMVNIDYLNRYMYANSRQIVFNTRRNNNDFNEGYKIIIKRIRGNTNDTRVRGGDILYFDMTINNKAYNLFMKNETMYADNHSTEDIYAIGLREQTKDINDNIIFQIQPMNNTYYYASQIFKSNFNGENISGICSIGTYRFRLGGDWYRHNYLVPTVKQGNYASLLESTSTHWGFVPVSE

[4] = biological target: T3, botulinum neurotoxin serotype E (BoNT/E) (UniProt Q00496 2-1251)
T3 sequence: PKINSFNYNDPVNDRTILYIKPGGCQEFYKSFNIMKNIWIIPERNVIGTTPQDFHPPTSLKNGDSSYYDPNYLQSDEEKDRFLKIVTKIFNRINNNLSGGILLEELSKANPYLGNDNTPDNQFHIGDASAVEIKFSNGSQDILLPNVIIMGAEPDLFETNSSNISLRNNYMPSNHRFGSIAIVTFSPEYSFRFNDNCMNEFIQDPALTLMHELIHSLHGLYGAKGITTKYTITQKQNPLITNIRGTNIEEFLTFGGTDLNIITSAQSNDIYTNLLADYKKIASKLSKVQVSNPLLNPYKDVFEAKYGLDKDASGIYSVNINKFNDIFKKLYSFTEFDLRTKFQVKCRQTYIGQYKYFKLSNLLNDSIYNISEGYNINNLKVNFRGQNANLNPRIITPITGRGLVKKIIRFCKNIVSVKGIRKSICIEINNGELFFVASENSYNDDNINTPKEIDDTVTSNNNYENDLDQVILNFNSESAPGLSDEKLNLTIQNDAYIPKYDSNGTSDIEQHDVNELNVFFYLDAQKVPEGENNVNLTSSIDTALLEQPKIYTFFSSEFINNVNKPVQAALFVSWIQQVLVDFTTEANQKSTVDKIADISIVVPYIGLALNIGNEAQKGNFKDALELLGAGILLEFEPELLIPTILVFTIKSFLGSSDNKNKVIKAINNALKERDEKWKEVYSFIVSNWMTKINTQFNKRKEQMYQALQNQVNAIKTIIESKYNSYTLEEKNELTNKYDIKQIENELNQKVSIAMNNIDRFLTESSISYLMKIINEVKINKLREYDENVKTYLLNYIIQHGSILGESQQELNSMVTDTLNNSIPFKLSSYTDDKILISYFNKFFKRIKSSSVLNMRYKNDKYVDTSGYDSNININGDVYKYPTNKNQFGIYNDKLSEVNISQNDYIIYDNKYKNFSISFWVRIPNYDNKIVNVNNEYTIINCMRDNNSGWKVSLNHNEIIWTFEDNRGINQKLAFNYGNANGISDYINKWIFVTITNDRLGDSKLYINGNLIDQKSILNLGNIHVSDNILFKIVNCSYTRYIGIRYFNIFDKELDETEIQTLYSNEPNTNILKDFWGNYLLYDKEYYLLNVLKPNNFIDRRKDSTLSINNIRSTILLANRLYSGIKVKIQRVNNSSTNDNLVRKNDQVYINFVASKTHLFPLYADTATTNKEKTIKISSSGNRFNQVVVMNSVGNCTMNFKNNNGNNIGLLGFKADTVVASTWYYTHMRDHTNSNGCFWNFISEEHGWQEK

Measured: binding result

Chain of BoNT/A HN, recombinant translocation domain of botulinum neurotoxin serotype A (P0DPI0 449-870 limits assumed): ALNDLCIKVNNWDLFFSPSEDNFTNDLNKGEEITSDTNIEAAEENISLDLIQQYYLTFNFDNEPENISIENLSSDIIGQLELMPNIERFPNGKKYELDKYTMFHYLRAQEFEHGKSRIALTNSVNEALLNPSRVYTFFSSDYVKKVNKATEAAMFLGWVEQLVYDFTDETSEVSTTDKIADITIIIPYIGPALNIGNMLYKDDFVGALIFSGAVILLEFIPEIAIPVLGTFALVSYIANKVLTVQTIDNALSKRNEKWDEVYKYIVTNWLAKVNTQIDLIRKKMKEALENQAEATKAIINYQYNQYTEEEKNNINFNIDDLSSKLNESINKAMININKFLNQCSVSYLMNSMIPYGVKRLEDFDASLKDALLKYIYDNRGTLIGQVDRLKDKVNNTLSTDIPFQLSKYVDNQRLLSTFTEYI

B1: scFv 3D12 (human, immune library) (scFv, V domains shown)
VH: QVQLVQSGGGVVHPGRSLKLSCAGSGFTFSDYDMHWVRQAPGKGLEWVAVMWFDGTEKYSAESVKGRFTISRDNSKNTLFLQMNSLRADDTAVYYCAREPDWLLWGDRGALDVWGQGTTVTVSS
VL: DIVMTQSPSTLSASVGDRVTITCRASQSISSWLAWYQQKPGKAPKLLMYEASSLESGVPSRFSGSGSGTEFTLTISSLQPDDFAAYYCQHYNTYPYTFGQGTKLEIKR
no binding: all assays above
